Consider four molecules from patent publication US7524646B2 (priority 2001, dated 2009).

Positions count from the first letter of the chain named. Names may count otherwise.

Assay [1] deals with strain β5520. The assay is described as follows: Suppression of thymidine auxotrophy by S-carbamoyl-cysteine. The class given is cell-based, E. coli. As to conditions: absence of thymidine, aerobic. As to the method:
One-step selection scheme. For the one-step selections, cysteine oxidation under aerobiosis and subsequent cystine precipitation from the growth medium was avoided by use of the non-oxidizable precursor S-carbamoyl-cysteine (Scc). Scc is a poor precursor of cysteine and sustains growth of a Cys-auxotrophic E. coli strain less efficiently than cysteine. However, at concentrations above 1 mM, Scc gave rise to suppression of the thymidine auxotrophy of strain β5520, while in the absence of thymidine no growth was detectable below 1 mM Scc. When β5419 cells bearing the thyA:Val146GUA allele on a high copy plasmid were plated on mineral glucose plates supplemented with Scc (3 mM), no colonies grew after prolonged incubation at 30° C. (The experiment was designed to detect a mutant at a frequency of 10^−10.) To increase the mutation frequency, a mutS::spc+ (33) mutator allele was introduced in the genetic background of strain β5419 by P1 transduction, yielding strain β5432 (the mutS::spc+ disruption disables the mismatch repair system and leads to random transitions and frameshifts (34)). Colonies then appeared on the same medium with a frequency of about 10^−8. No colonies were found on plates lacking Scc.

Assay [2] concerns [^3H]Thr-tRNAval. The assay is described as follows: Deacylation of mischarged Thr-tRNAVal by ValRS enzymes. It counts as biochemical, E. coli. The conditions noted are these: 2 nM enzyme, room temperature. The protocol:
FIG. 5B: Histogram representation of the inhibition zone diameters of DvalS::kanR strains harboring each of the ValRS editing mutants on plasmid in response to exogenous Abu. Effects range from mild to severe. Histogram representation of the percentage of mischarged Thr-tRNAVal remaining after incubation with 2 nM enzyme for 15 minutes at room temperature. Both show a distinct range in the severity of editing defects caused by these point mutations. Taken together this illustrates a correlation between the ability of the mutant enzyme to deacylate mischarged amino acids from tRNAVal in vitro and the degree of in vivo toxicity.
(§1) Misacylation of Thr onto tRNAval was performed in the same conditions except 5.86 μM [^3H]Thr was substituted forVal in the reaction. To test deacylation rates for these enzymes it was necessary to generate [^3H]Thr-tRNAval. […] Enzyme was incubated with 2.5 μM tRNAval and 45 uM [^3H]Thr, incubated at 37 C. for 45 minutes, extracted twice in phenol:chloroform, and ethanol precipitated. Pellet was dissolved in 100 μL sterile H2O and scintillation counting was used to determine the success of the reaction. Deacylation reactions, done in triplicate for each enzyme, were performed in 155 mM Tris-HCl (pH 7.5), 100 μg/ml BSA, 10 mM MgCl2. At room temperature 2 nM enzyme was combined with [^3H]Thr-tRNAval, at 3, 6, 9, 16, and 30 minutes aliquots (9 μL) of the reaction mixture were precipitated with tricholoracetic acid, and the amount of misaminoacylated [^3H]Thr-tRNAval remaining in the sample was determined by scintillation counting. A no enzyme control reaction was included to provide reference point.

Assay [3] deals with tRNA^Val. The assay is described as follows: Misacylation of tRNAVal with Thr. It counts as biochemical, E. coli. As to conditions: pH 7.5, 37° C. The protocol:
FIG. 2B: A graph showing misaminoacylation of tRNA^Val with Thr by the T222P mutant enzyme at pH 7.5 and 37° C. The wild-type (WT) and mutant alleles were cloned under the control of a PBAD promoter (30). The enzymes were partially purified from a laboratory strain lacking the chromosomal copy of the valS gene (ΔvalS::kan+). The purification and aminoacylation procedures were adapted from Hendrickson et al. (31). (Main panel) Misaminoacylation of tRNA^Val with Thr by the two enzymes. (Inset) Aminoacylation of tRNA^Val with Val by the two enzymes.
Aminoaclyation Assay, Misacylation, and Deacylation: Aminoacylation assays were performed at 37 C. in a 100 uL volume containing buffer (20 mM HEPES, 0.1 mM EDTA disodium salt, 0.15M NH4Cl, 10 ug/mL BSA pH 7.5), […] MgCl2, 0.7 μM [^3H]Val, 20 μM cold Val, 2 μM tRNAval (Sigma) and 20 nM ValRS enzyme (adapted from Hendrickson et al. 2000). Aliquots (10 μL) of the reaction mixture were precipitated with tricholoracetic acid, and the level of aminoacylation of the tRNA was determined by scintillation counting.
as §1

In the case of `NC(=O)SC[C@H](N)C(=O)O` [Scc, S-carbamoyl-cysteine], the “concentration giving suppression of the thymidine auxotrophy” value in assay [1] is on record as “above 1 mM”.

B1: K277Q: ValRS of E. coli with single substitution K277Q in the editing domain (protein, UniProt P07118 1-951, looked up, variant K277Q)
Valine--tRNA ligase: MEKTYNPQDIEQPLYEHWEKQGYFKPNGDESQESFCIMIPPPNVTGSLHMGHAFQQTIMDTMIRYQRMQGKNTLWQVGTDHAGIATQMVVERKIAAEEGKTRHDYGREAFIDKIWEWKAESGGTITRQMRRLGNSVDWERERFTMDEGLSNAVKEVFVRLYKEDLIYRGKRLVNWDPKLRTAISDLEVENRESKGSMWHIRYPLADGAKTADGKDYLVVATTRPETLLGDTGVAVNPEDPRYKDLIGKYVILPLVNRRIPIVGDEHADMEKGTGCVQITPAHDFNDYEVGKRHALPMINILTFDGDIRESAQVFDTKGNESDVYSSEIPAEFQKLERFAARKAVVAAVDALGLLEEIKPHDLTVPYGDRGGVVIEPMLTDQWYVRADVLAKPAVEAVENGDIQFVPKQYENMYFSWMRDIQDWCISRQLWWGHRIPAWYDEAGNVYVGRNEDEVRKENNLGADVVLRQDEDVLDTWFSSALWTFSTLGWPENTDALRQFHPTSVMVSGFDIIFFWIARMIMMTMHFIKDENGKPQVPFHTVYMTGLIRDDEGQKMSKSKGNVIDPLDMVDGISLPELLEKRTGNMMQPQLADKIRKRTEKQFPNGIEPHGTDALRFTLAALASTGRDINWDMKRLEGYRNFCNKLWNASRFVLMNTEGQDCGFNGGEMTLSLADRWILAEFNQTIKAYREALDSFRFDIAAGILYEFTWNQFCDWYLELTKPVMNGGTEAELRGTRHTLVTVLEGLLRLAHPIIPFITETIWQRVKVLCGITADTIMLQPFPQYDASQVDEAALADTEWLKQAIVAVRNIRAEMNIAPGKPLELLLRGCSADAERRVNENRGFLQTLARLESITVLPADDKGPVSVTKIIDGAELLIPMAGLINKEDELARLAKEVAKIEGEISRIENKLANEGFVARAPEAVIAKEREKLEGYAEAKAKLIEQQAVIAAL
Take B1: the “deacylation of Thr-tRNA^Val in vitro” value in assay [2] was “most severe defects”. The “misacylation of tRNA^Val with Thr” value in assay [3] is reported as “high levels of mischarged Thr-tRNA^Val”.

B2: D230N: ValRS of E. coli with single substitution D230N in the editing domain (protein, UniProt P07118 1-951, looked up, variant D230N)
Valine--tRNA ligase: B1 Valine--tRNA ligase with D230N, Q277K
On to B2, for which the “deacylation of Thr-tRNA^Val in vitro” value in assay [2] is listed as “slowed rate of deacylation”. Besides, in assay [3], the “misacylation of tRNA^Val with Thr” value is recorded as “low levels of mischarging”.

B3: V276A: ValRS of E. coli with single substitution V276A in the editing domain (protein, UniProt P07118 1-951, looked up, variant V276A)
Valine--tRNA ligase: B1 Valine--tRNA ligase with V276A, Q277K
B3: the “deacylation of Thr-tRNA^Val in vitro” value in assay [2] is recorded as “closer to wild-type ValRS”. The “misacylation of tRNA^Val with Thr” value in assay [3] is reported as “low levels of mischarging”.
